How the values were obtained:
Format in all cases: biochemical, Acanthamoeba castellanii
[1] = substrate: NC(=O)C1=CN([C@@H]2O[C@H](COP(=O)(O)OP(=O)(O)OC[C@H]3O[C@@H](n4cnc5c(N)ncnc54)[C@H](OP(=O)(O)O)[C@@H]3O)[C@@H](O)[C@H]2O)C=CC1; experiment: Trx-1-dependent DTNB reduction, A412; settings: 10 µg/ml Trx-1, 1 mM DTNB, 1 µg/ml (31 nM) TrxR-S, 100 mM potassium phosphate pH 6.8, 21-23 °C
Description: Trx-1-dependent DTNB reduction, A412 on Ac TrxR-S

[2] = substrate: NC(=O)C1=CN([C@@H]2O[C@H](COP(=O)(O)OP(=O)(O)OC[C@H]3O[C@@H](n4cnc5c(N)ncnc54)[C@H](OP(=O)(O)O)[C@@H]3O)[C@@H](O)[C@H]2O)C=CC1; experiment: GSH-dependent DTNB reduction, A412; settings: 1 mM GSSG, 11 nM GR, 100 mM Tris pH 7.5
Description: GSH-dependent DTNB reduction, A412 on Ac GR

[3] = substrate: C[S+]([O-])CCC(N)C(=O)O; experiment: coupled NADPH oxidation via TrxR-S and Trx-1, A340; settings: 610 nM MsrA, 1.9 µM Trx-1, Ac TrxR-S, 0.2 mM NADPH
Description: coupled NADPH oxidation via TrxR-S and Trx-1, A340 on MsrA

B1: Ac TrxR-S (Acanthamoeba castellanii str. Neff) (protein)
chain: MESKVHRMVIVGSGPAGHTAAIYAARANLEPVMYEGWMAGGVASGGQLTTTTDVENFPGFPEGVGGIDLTDNMRKQSERFGTVIIPKTITKADLSSRPFKLWVEGEEEGEPAAQAHSLIIATGATARRLAVPGEETFWQKGVSACAVCDGALPLFRNKPLAVVGGGDSACEEASWLSKFGSKVYLIHRRDELRASKIMAQRVLSNPKIEMVWNSAVEEIYGEKLVTGLKIKNVSTGDITDLPVSGLFWAIGHVPNTQFLNGQVETDAEGYIKTTPGSTVTSVEGVFAAGDVQDKRYRQAITAAGTGCMAALDAEHWLSAHL
notes: full-length from cDNA, 321 aa, C-terminal 6xHis, pET-17b, E. coli BL21-AI, Ni-NTA
[1]
  Km: 4 µM
  Vmax: 2.96 µmol/min/mg
  kcat: 1.7 s⁻¹

B2: Ac GR (Acanthamoeba castellanii str. Neff) (protein)
chain: MESAKSTYDFDLFVLGAGSGGVRASRISAKAGARVAIAEESRVGGTCVIRGCIPKKLLVYASHFSGDFEDSRNFGWSVDVKGFDWKKLIDNKDKEIDRLNGIYKNLLAGSGVKLIEGRATLVDAHTVKVGDATYTAENILVAVGSWPWVPTIPGIEHAITSNEALELQELPKHAIIVGAGYIACEFATIFSGCGAKVTQIFRKPYVLTGFDNDVQLAVMDEGKKQGINFMPSTQVTAIEKTDAGYVCQLDNGQTVTGDVVMYATGRVPNSANLGLENAGVKIDQQGAIVVDEWSRTSVPSIYAVGDITNRINLTPVALAEGHALADTLYNNLPRTADHTNVPSAVFTSPPVSCVGYTETQARQVYGEIDVYVSKFTPLRHTLSKRDEKTFMKLIVDRKTDRVVGAHMVGADAPEIIQGVAIAVKCGATKKQFDSTVGLHPSAAEEFVTMRTKRE
notes: full-length from cDNA, 454 aa, C-terminal 6xHis, expressed in Giardia lamblia WB C6, Ni-NTA; eluate also contained G. lamblia proteins
[2]
  Km: 9 µM

B3: MsrA (Acanthamoeba castellanii str. Neff) (protein)
chain: MTETATFGAGCFWGVEKFFRKEFGSALASTEVGYAGGDKSSPTYRQVCDGDTGHAEVVKLEFKKDAVDYASLVEFFFRIHDASTVDRQGNDVGTQYRSVIFYHTPEQKKVAEEVKDKVQKEHYPRTPIVTQIVPVGQYWSAEDYHQLYLEKNPSGYCNHRLRW
notes: full-length from cDNA, 163 aa, C-terminal 6xHis, pET-17b, E. coli BL21-AI, Ni-NTA
[3]
  Km: 2590 µM
  Vmax: 500 nmol/min/mg
  kcat: 0.155 s⁻¹
  kcat/Km: 59 M⁻¹ s⁻¹

From article PMC8038987, “An unusual thioredoxin system in the facultative parasite Acanthamoeba castellanii” (Cellular and Molecular Life Sciences: CMLS, 2021)
